This passage reports Abundance of phage clones results from patent publication US20180086790A1.

Like-named read-outs stand apart in the source and are kept apart here.

Experiment [1] deals with pheromone-biosynthesis-activating neuropeptide receptor (fire ant PBAN-R) (fire ant (Solenopsis invicta)). In words: phage display selection on Sf9 cells expressing PBAN-R, 3-4 rounds; count of sequenced clones.
Experiment [2] has the same target. Described as above. The source holds these as a separate data set.

QQTKNYY (SEQ ID NO: 32) (peptide) showed an Abundance of phage clones in experiment [1] of 1 clones. On the same count and under the same terms, the figure for TQIGTHF (SEQ ID NO: 17) (peptide) is 1 clones; for IKIGSHY (SEQ ID NO: 26) (peptide) it is 1 clones; for TNGDSAR (SEQ ID NO: 33) (peptide) it is 1 clones. In turn, ERVGTHF (SEQ ID NO: 20) (peptide) came in with an Abundance of phage clones in experiment [1] of 1 clones. In turn, IQIGTHF (SEQ ID NO: 18) (peptide) displayed an Abundance of phage clones in experiment [1] of 1 clones. QRIGLHY (SEQ ID NO: 27) (peptide) yielded an Abundance of phage clones in experiment [1] of 1 clones. In the case of HSRVSGT (SEQ ID NO: 21) (peptide), the Abundance of phage clones in experiment [1] came out at 1 clones. Same read-out and setting: the figure for IHXGTHF (SEQ ID NO: 22) (peptide) is 1 clones; for TNANHYF (SEQ ID NO: 31) (peptide) it is 1 clones. On the same count and under the same terms, with QSIGTHF (SEQ ID NO: 19) (peptide) the figure was 1 clones; with IKVGPHY (SEQ ID NO: 25) (peptide), 1 clones; with YSSPSHF (SEQ ID NO: 23) (peptide), 1 clones.

VSRTSHL (SEQ ID NO: 28) (peptide) registered an Abundance of phage clones in experiment [1] of 1 clones. The same measure, in the same setting: the figure for TXVGSHF (SEQ ID NO: 15) (peptide) is 1 clones. ERVGTHY (SEQ ID NO: 24) (peptide): the Abundance of phage clones in experiment [1] turned out to be 1 clones.

Molecule NTGGSMA (SEQ ID NO: 35) (peptide) gave an Abundance of phage clones in experiment [1] of 1 clones. As for SQLPWYS (SEQ ID NO: 34) (peptide), the Abundance of phage clones in experiment [1] came out at 1 clones. LPMTKHV (SEQ ID NO: 30) (peptide) had an Abundance of phage clones in experiment [1] of 1 clones. With IHIGSHF (SEQ ID NO: 16) (peptide), the Abundance of phage clones in experiment [1] was found to be 1 clones. Still for that read-out and setting: the figure for LPWQIHN (SEQ ID NO: 29) (peptide) is 1 clones. The same measure, in the same setting: the figure for NTGSPYE (SEQ ID NO: 36) (peptide) is 1 clones. CVKLGSHFC (Cysteine-Cysteine S-S bond at the N- and C-terminal ends) [… (SEQ ID NO: 6)] had an Abundance of phage clones in experiment [2] of 2 clones. Still for that read-out and setting: with CIVQGSHFC (loop-constrained by a pair of flanking cysteine (C) residues) [… (SEQ ID NO: 10)] the figure was 2 clones; with CVKQGTHFC (loop-constrained by a pair of flanking cysteine (C) residues) [… (SEQ ID NO: 9)], 2 clones.

CMARYMSAC (Cysteine-Cysteine S-S bond at the N- and C-terminal ends) [… (SEQ ID NO: 11)] gave an Abundance of phage clones in experiment [2] of 2 clones. For CIVQGSHFC (loop-constrained by a pair of flanking cysteine (C) residues) [… (SEQ ID NO: 7)], the Abundance of phage clones in experiment [2] was 2 clones. Still for that read-out and setting: the figure for CQSINGHFC (loop-constrained by a pair of flanking cysteine (C) residues) [… (SEQ ID NO: 8)] is 2 clones; for CRGATPMSC (Cysteine-Cysteine S-S bond at the N- and C-terminal ends) [… (SEQ ID NO: 12)] it is 2 clones; for CIQQGSHFC (loop-constrained by a pair of flanking cysteine (C) residues) [… (SEQ ID NO: 4)] it is 3 clones.

Take CLKIGSHFC (Cysteine-Cysteine S-S bond at the N- and C-terminal ends) [… (SEQ ID NO: 3)]: the Abundance of phage clones in experiment [2] stood at 7 clones. Consider CERVGSHFC (loop-constrained by a pair of flanking cysteine (C) residues) [… (SEQ ID NO: 5)], for which, in experiment [2], the Abundance of phage clones amounted to 3 clones.
